Source: the supplement of paper PMC9170038

Test system: MS2 coat protein
Experiment: apparent KD of MS2 coat protein; designed switch direction (-1 OFF switch, 1 ON switch): -1; higher = weaker reporter binding
How it was run: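 Designed RNA switches with common flanks were transcribed on Illumina chips by stalled E. coli RNA polymerase and titrated with SNAP-549-labelled MS2 coat protein, from 0.7 or 1.5 nM doubling to 3 µM, in Tris-HCl pH 7.5 buffer with KCl, MgCl2, BSA, DTT, tRNA and Tween-20. Steps lasted 0.8–1.5 h (lowest) to 10–20 min (highest). Titrations ran without input, with 200 uM small-molecule ligand, or with an oligonucleotide input. Normalised cluster fluorescence was curve-fitted, and apparent KD is the per-design median over clusters.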

[1] = input ligand: microRNA oligo, concentration not stated
[2] = Eterna round: R95, input ligand: FMN 200 uM
[3] = Eterna round: R95, input ligand: microRNA oligo, concentration not stated
[4] = Eterna round: R95, input ligand: none

Sequence	apparent KD of MS2 coat protein (input ligand: FMN 200 uM) [nM]	apparent KD of MS2 coat protein [1] [nM]	apparent KD of MS2 coat protein (input ligand: none) [nM]	apparent KD of MS2 coat protein [2] [nM]	apparent KD of MS2 coat protein [3] [nM]	apparent KD of MS2 coat protein [4] [nM]
CGGCUACGAUGAGGAUAUACGCACAUGAGGAUCACCCAUGUAAAUCACGGGUAAAGAUCUUCAUCGUAGAAGGCAUAAGGGCCC [Edarbelabe] (Eterna round: R96, puzzle: Exclusion NG 2)	31.8	20.9	31.4	–	–	–
CGGGUCGGAGGAUAUACAGAAGCAUCUGUGUCGGGAAUAUGACAUGAGGAUCACCCAUGUAGAAGGCCGAUCAC [Eternabot (L2) Solution 98] (Eterna round: R97, puzzle: Exclusion 2)	485	–	80	–	–	–
CGGGUGAAUAGAGGAUAUAGUACAUGAGGAUCACCCAUGUAAUAAAUGAGAAUUUCGAAUGUAAUCUAGAAGGCUAGAAAACCC [Ostracism 99 - Jieux - Exclusion NG 2] (Eterna round: R96, puzzle: Exclusion NG 2)	367	150	274	–	–	–
CGGGUUCGUGUUAGGAUAUGCACGCACCCGUAGCGGCAGAAGGAACAUGAGGAUCACCCAUGUGAAUAAGAAAA [BmEX4 A.3] (Eterna round: R97, puzzle: Brourd's mod of Exclusion 4)	18.3	–	15.5	–	–	–
CGGGUUCGUGUUAGGAUAUGCACGCACCCGUUGCGGCAGAAGGAACAUGAGGAUCACCCAUGUGAAUAAGAAAG [BmEX4 A.21] (Eterna round: R97, puzzle: Brourd's mod of Exclusion 4)	17.1	–	15.5	–	–	–
CGGUACUGAGGAUAUACAUGAGGAUCACCCAUGUGUACCAGCUAGCGUACUGGCAUUAGUAGAAGGCGGUGCUG [JL-ex3-3.19 Brourd mod] (puzzle: Exclusion 3)	–	–	–	15.7	14.3	13.7
CGGUACUGAGGAUAUACAUGAGGAUCACCCAUGUGUUCUAGCUAGCGUACUGGCUAUUGUAGAAGGCGGUGCUG [JL-ex3-3.24 Brourd mod] (puzzle: Exclusion 3)	–	–	–	–	17.5	–
CGGUAGUAUGUAGGAUAUCGGUCAGUUUCUGAUCGAGAAGGACAUGAGGAUCACCCAUGUAAAACGACCGGUUUCUGGUUGCCG [JL ENG1 3.55] (Eterna round: R96, puzzle: Exclusion NG 1)	15.4	12	15.6	–	–	–
CGGUCGUCGUGAGGAUAUACAUGAGGAUCACCCAUGUUUCUCGGGUCGGUCGUCCGGUCGGUGGUGUAGAAGGCGCGGUGGCUG [random 3, A 14%] (Eterna round: R96, puzzle: Exclusion NG 2)	125	95.6	100	–	–	–
CGGUGCUGAGGAUAUACAUGAGGAUCACCCAUGUGUUCCAGCUAGCGUACUGGCAGGUGUAGAAGGCGGUACUG [JL-ex3-3.41 Brourd mod] (puzzle: Exclusion 3)	–	–	–	68.7	18.7	20.1
CGGUGCUGAGGAUAUACAUGAGGAUCACCCAUGUGUUCCUGCUAGCGUACUGGCAGAUGUAGAAGGCGGUACUG [JL-ex3-3.44 Brourd mod] (puzzle: Exclusion 3)	–	–	–	84	20.8	26.7
CGGUGCUGAGGAUAUACAUGAGGAUCACCCAUGUGUUCCUGCUAGGUGACUGGCAAAUGUAGAAGGCGGUACUG [JL-ex3-3.37 Brourd mod] (puzzle: Exclusion 3)	–	–	–	34.8	120	131
CGGUGCUUCUGGAAACAUGAGGAUCACCCAUGUUGAGUUAGCGAGGAUAUCGGUAACACAUGUCACGAGAAGGCGCGAACCAGA [Ex NG3 #34] (Eterna round: R96, puzzle: Exclusion NG 3)	10.4	13	16.7	–	–	–
CGGUGUAGAGGAUAUACGUGAAGAUAAGAAAAUAAUAAUUAACAUGAGGAUCACCCAUGUAGAAGGCUAUAGCG [JR_Ex2_Sub082] (Eterna round: R97, puzzle: Exclusion 2)	66.3	–	24.9	–	–	–
CGUAAGCUAGGAUAUGCUUUGGGAAAGCAUUCCUUCGAUAAACUUGAGGAUCACCCAAGUAGAAGGAGCUUACC [salish99_ex2_r4_009] (Eterna round: R97, puzzle: Exclusion 2)	11.7	–	11.5	–	–	–
CGUAAGCUAGGAUAUGCUUUGGGAAAGCAUUCCUUCGAUAAACUUGAGGAUCACCCAAGUAGAAGGAGCUUACU [salish99_ex2_r4_011] (Eterna round: R97, puzzle: Exclusion 2)	19.5	–	12.5	–	–	–
CGUAAGGUAGGAUAUACAUGAGGAUCACCCAUGUCCCACCCGUUACCUAUGACCAUAUGUAGAAGGACCAAUGC [Exy#10] (Eterna round: R97, puzzle: Exclusion 3)	20.7	–	22.7	–	–	–

Sequence	apparent KD of MS2 coat protein (input ligand: FMN 200 uM) [nM]	apparent KD of MS2 coat protein [1] [nM]	apparent KD of MS2 coat protein (input ligand: none) [nM]	apparent KD of MS2 coat protein [2] [nM]	apparent KD of MS2 coat protein [3] [nM]	apparent KD of MS2 coat protein [4] [nM]
CGUACUGAAGUGAGGAUAUUGUCUCGGAUACGAAACAAGAAGGCACAUGAGGAUCACCCAUGUUAACAGUACGA [Malc #30 mod 9] (puzzle: Brourd's mod of Exclusion 4)	–	–	–	15.2	19.2	14.5
CGUCAGUGAGGAUAUGGUAACGUUUACAUGAGGAUCACCCAUGUUUCAUGGGACUAGAGACUAGAAGGUACUGACG [EX5 #42] (Eterna round: R97, puzzle: Exclusion 5)	189	–	132	–	–	–
CGUCUGUAAGGAUAUGGUAGCAUCAACAUGAGGAUCACCCAUGUUACAUGGGACUAGUGAUUAGAAGGUACGAACG [EX5 #56] (Eterna round: R97, puzzle: Exclusion 5)	58.5	–	80.6	–	–	–
CGUCUGUAAGGAUAUGGUUACAUCGACAUGAGGAUCACCCAUGUGACGUGGGACUAGUGAUUAGAAGGUACGAACG [EX5 #65] (Eterna round: R97, puzzle: Exclusion 5)	55.2	–	59.4	–	–	–
CGUCUGUAAGGAUAUGGUUGCAUCGACAUGAGGAUCACCCAUGUAACGUGGGACUAGUGAUUAGAAGGUACGAACG [EX5 #61] (Eterna round: R97, puzzle: Exclusion 5)	110	–	133	–	–	–
CGUGACUCAGGAUAUCUAUAAUAUCACAUGAGGAUCACCCAUGUCCAGCGAAAGCUGGAGGGAGAAGGGAGUCACG [Fiskers Ex 5 - 35] (puzzle: Exclusion 5)	–	–	–	32.8	164	146
CGUGACUCAGGAUAUUCAUAAUAUCACAUGAGGAUCACCCAUGUCCAGCGAAAGCUGGAGGGAGAAGGGAGUCACG [Fiskers Ex 5 - 37] (puzzle: Exclusion 5)	–	–	–	56.7	151	99.6
CGUGACUGAGGAUAUCUAUAAUAUCACAUGAGGAUCACCCAUGUCCAGCGAAAGCUGGAAGGAGAAGGCAGUCACG [Fiskers Ex 5 - 34] (puzzle: Exclusion 5)	–	–	–	39.3	21.4	25.1
CGUGAGCGCGUCAGGAUAUGGCGGCGGCGGCGGCGCCAGAAGGGACAUGAGGAUCACCCAUGUUGCGUGCGUGG [Prefect Broudrd's mod of Exclusion] (Eterna round: R97, puzzle: Brourd's mod of Exclusion 4)	73	–	39.3	–	–	–
CGUGGACAUAACAAGCUUUACAUGAGGAUCACCCAUGUGAUCAUGCUCGUCUUAUGGUCCACGAAUUAAUUAAUUAG [Stov1/6-C2] (Eterna round: R97, puzzle: Sensor, turn-off variant 1)	19.2	–	18.3	–	–	–
CGUGUCUUUCACGUGAGUGGUGGGUGCAACAGGUGGGAAACAUGAGGAUCACCCAUGUCCUCACUUGCUCGUCUUUU [Grok-var2-03] (puzzle: Sensor v3, turn-off variant 2)	–	–	–	27.1	109	26.1
CGUGUCUUUCACGUGAGUGGUGGGUGCAACAGGUGGGUUACAUGAGGAUCACCCAUGUCCUCACUUGCUCGUCUUUU [Grok-var2-04] (puzzle: Sensor v3, turn-off variant 2)	–	–	–	36.1	109	37.2
CGUGUGUGAGGAUAUGACAAUGGUAUCUUCGGAUACCAUUGUCAGAAGGUACAUGAGGAUCACCCAUGUAGAUC [Exclusion 4 - Mod Brourd Ex 4-3: 20 v.2] (Eterna round: R96, puzzle: Exclusion 4)	115	41.4	59.8	–	–	–
CGUGUGUGAGGAUAUGACAAUGGUAUCUUCGGAUACCAUUGUCAGAAGGUACAUGAGGAUCACCCAUGUAGAUC [Exclusion 4 - Mod Brourd Ex 4-3: 20 v.2] (puzzle: Exclusion 4)	–	–	–	–	35.6	–
CGUUCCACAGGAUAUACAAAACGUAUCCCAGGGCUAACAGGACAUGAGGAUCACCCAUGUAGAAGGGUGGAACU [Eternabot (L1) Solution 36] (Eterna round: R97, puzzle: Exclusion 2)	571	–	674	–	–	–
CGUUCGCGAGGAUAUGCAUUCGAGUCCACUACGUGUCUGGGACUUGAGGAUCACCCAAGUAGAAGGCGCCUCAC [salish99_ex2_r4_648] (Eterna round: R97, puzzle: Exclusion 2)	83.9	–	135	–	–	–
CGUUCUCACGUCAGGAUAUAGGACUUGCACGUGUGCUAGAAGGGACAUGAGGAUCACCCAUGUAAAUAAGAAAG [Quonbi] (Eterna round: R97, puzzle: Brourd's mod of Exclusion 4)	37.5	–	27.1	–	–	–
